# From patent US20250206828A1, “ANTI-ADENOSINE RECEPTOR (A2aR) ANTIBODIES AND THE USE THEREOF” (Adept Therapeutics Inc., priority 2022, published 2025)
# Tests used:
# [1] = tested on: human PBMCs (CD4 and CD8 T cells); experiment: Restoration of CD25 and CD69 activation markers on NECA-suppressed CD4 and CD8 T cells; assay type: cell-based; conditions: test substance 2 μg/ml
# Procedure: (§1) Two hundred thousand (2×10^5) human peripheral blood mononuclear cells (PBMCs) human PBMC in complete IMDM medium were aliquoted into each well in a 96-well plate and the cells in the 96-well plate were pre-incubated with antibodies or small molecule inhibitors at indicated concentration for 90 minutes, followed by addition of T cell activator anti-CD3/28 dynabeads (Gibco, Cat #11132D) at ratio of 1:4 (Beads: PBMC, v/v) and NECA (DiscoverX, Cat #92-1191, final concentration […]). Cells were cultured in an incubator at 37° C., 5% CO2 for 24 hours. Cells were then collected and stimulated with anti-CD3/28 dynabeads in the presence of GolgiPlug™ Protein Transport Inhibitor (BD Biosciences, Cat #555028) according to manufacturer's manual for 4 hours. Thereafter, cells were incubated with human TruStain FcX block (Biolegend, Cat #422302) and True-Stain monocyte blocker (Biolegend, Cat #426103) for 15 minutes according the manufacturer's manual, and cells were then stained with surface markers PE-anti-CD4 (Biolegend, Cat #300550), PerCP-cy5.5-anti-CD8 (Biolegend, Cat #301032), APC/cy7-anti-CD3 (Biolegend, Cat #300426) and PE/cy7-anti-CD56 (Biolegend, Cat #362509), PE/cy7-anti-CD56 (Biolegend, Cat #362509), BV711-anti-CD25 (Biolegend, Cat #302636) and BV605-anti-CD69 (Biolegend, Cat #31938 After wash with FACS buffer, cells were stained with BV421-anti-IFN-γ (BD Bioscience, Cat #562988) and APC anti-IL-2 (BD Bioscience, cat #551383) using intracellular cytokine staining kit (BD Biosciences, cat #555028) following manufacturer's instruction. Stained samples were analyzed on FACSAria III machine. Data were analyzed using Flowjo software.
# [2] = tested on: human PBMCs (CD4 T, CD8 T, NK cells); experiment: Restoration of IFN-γ and IL-2 production of NECA-suppressed T cells and NK cells (intracellular cytokine staining); assay type: cell-based; conditions: NECA; test substance 2 μg/ml
# Procedure: as §1
# [3] = target: human adenosine A2A receptor (A2aR) (human, UniProt P29274 1-412); experiment: flow cytometry, HEK293-hA2aR cells, supernatant 1 ug/ml
# Chain of human adenosine A2A receptor (A2aR) (P29274 whole entry): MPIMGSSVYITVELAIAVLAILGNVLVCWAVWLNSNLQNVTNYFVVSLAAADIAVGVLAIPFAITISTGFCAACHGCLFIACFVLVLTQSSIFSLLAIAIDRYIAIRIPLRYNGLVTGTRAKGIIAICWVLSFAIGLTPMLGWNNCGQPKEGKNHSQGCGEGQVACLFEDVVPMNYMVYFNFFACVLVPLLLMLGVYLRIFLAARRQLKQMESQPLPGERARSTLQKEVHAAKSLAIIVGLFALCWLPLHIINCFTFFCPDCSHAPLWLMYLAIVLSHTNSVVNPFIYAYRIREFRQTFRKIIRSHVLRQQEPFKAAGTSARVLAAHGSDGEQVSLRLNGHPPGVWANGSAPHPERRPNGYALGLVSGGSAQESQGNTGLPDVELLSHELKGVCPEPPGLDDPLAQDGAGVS
MFI [3],Molecule,other results
110 MFI,"Hu3F8-H4/Hu3F8-L1 (antibody, human IgG1, V domains shown) VH: EVQLVQSGAEVKKPGASVKVSCKASGFTFTRYWMNWVRQAPGQGLEWIGRIDPSDSETHYNHKFWGRATLTVDKSTSTVYMELSSLRSEDTAVYYCLRSLYGKGDYWGQGTTVTVSS VL: DVVMTQSPLSLPVTLGQPASISCRSSQSIVHSNGNTYLEWFQQRPGQSPRRLIYKVSNRFSGVPDRFSGSGSGTDFTLKISRVEAEDVGVYYCYQGSHVPLTFGGGTKVEIK",
93 MFI,"Hu3F8-H3/Hu3F8-L2 (antibody, human IgG1, V domains shown) VH: EVQLVQSGAEVKKPGASVKVSCKASGFTFTRYWMNWVRQAPGQGLEWIGRIDPSDSETHYNHKFWGRATLTVDTSTSTVYMELSSLRSEDTAVYYCLRSLYGKGDYWGQGTTVTVSS VL: DVVMTQSPLSLPVTLGQPASISCRSSQSIVHSNGNTYLEWYQQRPGQSPRRLIYKVSNRFSGVPDRFSGSGSGTDFTLKISRVEAEDVGVYYCYQGSHVPLTFGGGTKVEIK",
58 MFI,"Hu3F8-H5/Hu3F8-L1 (antibody, human IgG1, V domains shown) VH: EVQLVQSGAEVKKPGASVKVSCKASGFTFTRYWMNWVRQAPGQGLEWIGRIDPSDSETHYNAKFWGRATLTVDKSTSTVYMELSSLRSEDTAVYYCLRSLYGKGDYWGQGTTVTVSS VL: DVVMTQSPLSLPVTLGQPASISCRSSQSIVHSNGNTYLEWFQQRPGQSPRRLIYKVSNRFSGVPDRFSGSGSGTDFTLKISRVEAEDVGVYYCYQGSHVPLTFGGGTKVEIK",
131 MFI,"Hu3F8-H4/Hu3F8-L2 (antibody, human IgG1, V domains shown) VH: EVQLVQSGAEVKKPGASVKVSCKASGFTFTRYWMNWVRQAPGQGLEWIGRIDPSDSETHYNHKFWGRATLTVDKSTSTVYMELSSLRSEDTAVYYCLRSLYGKGDYWGQGTTVTVSS VL: DVVMTQSPLSLPVTLGQPASISCRSSQSIVHSNGNTYLEWYQQRPGQSPRRLIYKVSNRFSGVPDRFSGSGSGTDFTLKISRVEAEDVGVYYCYQGSHVPLTFGGGTKVEIK",
158 MFI,"Hu3F8-H6/Hu3F8-L1 (antibody, human IgG1, V domains shown) VH: EVQLVQSGAEVKKPGESLRISCKASGFTFTRYWMNWVRQMPGKGLEWIGRIDPSDSETHYNHKFWGHATLSVDKSSSTVYLQWSSLKASDTAMYYCLRSLYGKGDYWGQGTTVTVSS VL: DVVMTQSPLSLPVTLGQPASISCRSSQSIVHSNGNTYLEWFQQRPGQSPRRLIYKVSNRFSGVPDRFSGSGSGTDFTLKISRVEAEDVGVYYCYQGSHVPLTFGGGTKVEIK",
64 MFI,"Hu3F8-H3/Hu3F8-L1 (antibody, human IgG1, V domains shown) VH: EVQLVQSGAEVKKPGASVKVSCKASGFTFTRYWMNWVRQAPGQGLEWIGRIDPSDSETHYNHKFWGRATLTVDTSTSTVYMELSSLRSEDTAVYYCLRSLYGKGDYWGQGTTVTVSS VL: DVVMTQSPLSLPVTLGQPASISCRSSQSIVHSNGNTYLEWFQQRPGQSPRRLIYKVSNRFSGVPDRFSGSGSGTDFTLKISRVEAEDVGVYYCYQGSHVPLTFGGGTKVEIK",
147 MFI,"Hu3F8-H5/Hu3F8-L2 (antibody, human IgG1, V domains shown) VH: EVQLVQSGAEVKKPGASVKVSCKASGFTFTRYWMNWVRQAPGQGLEWIGRIDPSDSETHYNAKFWGRATLTVDKSTSTVYMELSSLRSEDTAVYYCLRSLYGKGDYWGQGTTVTVSS VL: DVVMTQSPLSLPVTLGQPASISCRSSQSIVHSNGNTYLEWYQQRPGQSPRRLIYKVSNRFSGVPDRFSGSGSGTDFTLKISRVEAEDVGVYYCYQGSHVPLTFGGGTKVEIK",

# The remaining lines, values behind:
Molecule,MFI [3],other results
Cc1cc(-c2nnc(N)nc2-c2ccc(F)cc2)cc(Cl)n1 [AZD4635],,"% of cells CD25+, CD4 T cells [1]: 48.8%; % of cells CD25+, CD8 T cells [1]: 26%; % of cells CD69+, CD4 T cells [1]: 48.1%; % of cells CD69+, CD8 T cells [1]: 49.1%; % of cells IFNγ+, CD4 T cells [2]: 3.41%; % of cells IFNγ+, CD8 T cells [2]: 13.3%; % of cells IFNγ+, NK cells [2]: 8.91%; % of cells IL-2+, CD4 T cells [2]: 10.4%; % of cells IL-2+, CD8 T cells [2]: 2.57%"
"Hu3F6-H5/Hu3F6-L2 (antibody, human IgG1, V domains shown) VH: EVQLVQSGAEVKKPGASVKVSCKTSGFAFTSYWMNWVRQAPGQGLEWIGRIDPSDSEAHYAHKFWGRATLTVDKSSSTVYMELSSLRSEDTAVYYCLRSLYGKGDYWGHGTTVTVSS VL: DVVMTQSPLSLPVTLGQPASISCRSSQSLVHRNGNTYLEWYQQRPGQSPRRLIYKVSNRFSGVPDRFSGSGSGTDFTLKISRVEAEDVGVYYCYQGSHVPLTFGGGTKVEIK",191 MFI,
"Hu1B5-H2/Hu1B5-L1 (antibody, human IgG1, V domains shown) VH: EVQLVQSGAEVKKPGASVKVSCKTSGFTFTRFWMNWVRQAPGQGLEWMGRIDPYDSETQYNHKFWDRVTMTVDTSTSTVYMELSSLRSEDTAVYYCGRSLYGKGDYWGQGTTVTVSS VL: DVVMTQSPLSLPVTLGQPASISCRSSQSIVHSNGNTYLEWFQQRPGQSPRRLIYKVSNRFSGVPDRFSGSGSGTDFTLKISRVEAEDVGVYYCFQGSHVPLTFGGGTKVEIK",165 MFI,
"Hu3F6-H3/Hu3F6-L2 (antibody, human IgG1, V domains shown) VH: EVQLVQSGAEVKKPGASVKVSCKTSGFAFTSYWMNWVRQAPGQGLEWIGRIDPSDSEAHYHHKFWGRATLTVDTSSSTVYMELSSLRSEDTAVYYCLRSLYGKGDYWGHGTTVTVSS VL: DVVMTQSPLSLPVTLGQPASISCRSSQSLVHRNGNTYLEWYQQRPGQSPRRLIYKVSNRFSGVPDRFSGSGSGTDFTLKISRVEAEDVGVYYCYQGSHVPLTFGGGTKVEIK",200 MFI,
"Hu1B5-H2.1/Hu1B5-L1 (antibody, human IgG1, V domains shown) VH: EVQLVQSGAEVKKPGASVKVSCKTSGFTFTRFWMNWVRQAPGQGLEWIGRIDPYDSETQYNHKFWDRVTMTVDTSTSTVYMELSSLRSEDTAVYYCGRSLYGKGDYWGQGTTVTVSS VL: DVVMTQSPLSLPVTLGQPASISCRSSQSIVHSNGNTYLEWFQQRPGQSPRRLIYKVSNRFSGVPDRFSGSGSGTDFTLKISRVEAEDVGVYYCFQGSHVPLTFGGGTKVEIK",145 MFI,
"Hu3F6-H2/Hu3F6-L2 (antibody, human IgG1, V domains shown) VH: EVQLVQSGAEVKKPGASVKVSCKTSGFAFTSYWMNWVRQAPGQGLEWMGRIDPSDSEAHYHHKFWGRVTMTVDTSTSTVYMELSSLRSEDTAVYYCLRSLYGKGDYWGHGTTVTVSS VL: DVVMTQSPLSLPVTLGQPASISCRSSQSLVHRNGNTYLEWYQQRPGQSPRRLIYKVSNRFSGVPDRFSGSGSGTDFTLKISRVEAEDVGVYYCYQGSHVPLTFGGGTKVEIK",146 MFI,
"Hu1B5-H1/Hu1B5-L2 (antibody, human IgG1, V domains shown) VH: QVQLVQSGAEVKKPGASVKVSCKASGFTFTRFWMNWVRQAPGQGLEWMGRIDPYDSETQYNHKFWDRVTMTRDTSTSTVYMELSSLRSEDTAVYYCGRSLYGKGDYWGQGTTVTVSS VL: DVVMTQSPLSLPVTLGQPASISCRSSQSIVHSNGNTYLEWYQQRPGQSPRRLIYKVSNRFSGVPDRFSGSGSGTDFTLKISRVEAEDVGVYYCFQGSHVPLTFGGGTKVEIK",62 MFI,
"Hu1B5-H6/Hu1B5-L1 (antibody, human IgG1, V domains shown) VH: EVQLVQSGAEVKKPGESLRISCKTSGFTFTRFWMNWVRQMPGKGLEWIGRIDPYDSETQYNHKFWDHATLSVDKSSSTVYLQWSSLKASDTAMYYCGRSLYGKGDYWGQGTTVTVSS VL: DVVMTQSPLSLPVTLGQPASISCRSSQSIVHSNGNTYLEWFQQRPGQSPRRLIYKVSNRFSGVPDRFSGSGSGTDFTLKISRVEAEDVGVYYCFQGSHVPLTFGGGTKVEIK",178 MFI,
"Hu1B5-H4/Hu1B5-L1 (antibody, human IgG1, V domains shown) VH: EVQLVQSGAEVKKPGASVKVSCKTSGFTFTRFWMNWVRQAPGQGLEWIGRIDPYDSETQYNHKFWDRATLTVDKSSSTVYMELSSLRSEDTAVYYCGRSLYGKGDYWGQGTTVTVSS VL: DVVMTQSPLSLPVTLGQPASISCRSSQSIVHSNGNTYLEWFQQRPGQSPRRLIYKVSNRFSGVPDRFSGSGSGTDFTLKISRVEAEDVGVYYCFQGSHVPLTFGGGTKVEIK",182 MFI,
"Hu1B5-H5/Hu1B5-L1 (antibody, human IgG1, V domains shown) VH: EVQLVQSGAEVKKPGASVKVSCKTSGFTFTRFWMNWVRQAPGQGLEWIGRIDPYDSETQYAHKFWDRATLTVDKSSSTVYMELSSLRSEDTAVYYCGRSLYGKGDYWGQGTTVTVSS VL: DVVMTQSPLSLPVTLGQPASISCRSSQSIVHSNGNTYLEWFQQRPGQSPRRLIYKVSNRFSGVPDRFSGSGSGTDFTLKISRVEAEDVGVYYCFQGSHVPLTFGGGTKVEIK",82 MFI,
"Hu1B5-H3/Hu1B5-L1 (antibody, human IgG1, V domains shown) VH: EVQLVQSGAEVKKPGASVKVSCKTSGFTFTRFWMNWVRQAPGQGLEWIGRIDPYDSETQYNHKFWDRATLTVDTSSSTVYMELSSLRSEDTAVYYCGRSLYGKGDYWGQGTTVTVSS VL: DVVMTQSPLSLPVTLGQPASISCRSSQSIVHSNGNTYLEWFQQRPGQSPRRLIYKVSNRFSGVPDRFSGSGSGTDFTLKISRVEAEDVGVYYCFQGSHVPLTFGGGTKVEIK",152 MFI,
